Experimental data as given in patent US6787341B2, “Pharmacological targeting of bacterial DNA ligase for treatment and prevention of bacterial infections” (priority 2001, dated 2004).

Tested on: NC(=O)c1ccc[n+]([C@@H]2O[C@H](COP(=O)([O-])OP(=O)(O)OC[C@H]3O[C@@H](n4cnc5c(N)ncnc54)[C@H](O)[C@@H]3O)[C@@H](O)[C@H]2O)c1
Assay: Nucleotide cofactor specificity of AmEPV ligase in nick ligation
Assay type: biochemical, Amsacta moorei entomopoxvirus
Conditions: other: from double-reciprocal plot, sub-saturating enzyme; pH 7.5; 22.0 °C
Method: Reaction mixtures (20 μl) containing 50 mM Tris-HCl (pH 7.5), 10 mM (NH4)2SO4, 5 mM DTT, 5 mM MgCl2, 1 pmol of ^32P-labeled nicked DNA, 32 ng of AmEPV ligase, and 50 μM of the indicated nucleotide were incubated for 30 min at 22° C. A control reaction contained no added nucleotide cofactor (none). The reaction products were resolved by polyacrylamide gel electrophoresis. An autoradiogram of the gel is shown.
A low level of nick ligation could be detected in the absence of added nucleotide (FIG. 6). Cofactor-independent ligation was attributed to pre-adenylated ligase in the enzyme preparation. […] Inclusion of NAD^+ in the reaction mixture stimulated nick ligation such that ˜90% of the input substrate molecules were sealed (FIG. 6). […] Indeed, none of the standard rNTPs or dNTPs were able to satisfy the requirement of AmEPV ligase for a high energy cofactor (FIG. 6). […] A Km of 9 μM NAD^+ was calculated from a double-reciprocal plot of the data.

For “AmEPV ligase (Betaentomopoxvirus amoorei)”, which Km is on record?
Its Km is 9 µM.
